Data taken from the supplement of paper PMC6755084.

test system: F1*sub RNA substrate (template-directed ligation); test: fraction ligated after 30 min (ligated reads / total reads); higher = more ligase activity; sequences stand for … in GAGACCGCAACTGAAAAGTTGT…AGTTCTGCACGTAGAAGCAAAAGGC; details: 42 °C
Description: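 Chip-synthesised pool of F1* ligase ribozyme variants (all single and double substitutions, single, double and triple deletions in the catalytic core and GAA bulge, plus designed variants) was transcribed with T7 and reacted as a pool with excess substrate F1*sub for 30 min at 42 C in 50 mM EPPS pH 8.5, 25 mM MgCl2. Ligated and unligated bands were separated by PAGE, barcoded by RT and deep sequenced; fraction ligated = ligated reads / total reads per variant, relative activity = FL / FL of wild type (0.826). Sequences are the DNA template of the ribozyme.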

Row | Sequence | fraction ligated
1 | TATCCTTGTCGTAAACACTTTGGTGGGTTGA [3d1060] | 0.0666
2 | TATCACTTGTCAAGACACTTTGGTGGGTTGA [3d1818] | 0.128
3 | TATCACTTGTCGTAAACCTTTGGATGGGTTG [3d2073] | 0.793
4 | TTCACTTGTCGTAGACACTTTGGATGGGTTG [3d441] | 0.801
5 | TATCCTTGTCGAAACACTTTGGATGGGTTGA [3d1030] | 0.81
6 | ATCACTTGTCGTAAGACACTTTGGTGGGTTGA [2d20] | 0.0391
7 | TATCACTTTGTAAGACACTTTGGTGGGTTGA [3d1474] | 0.0671
8 | TATCCTTGTCGTAAGACACTTTGGGGGTTGA [3d1110] | 0.0067
9 | TATCACTGTGTAAGACACTTTGGATGGTTGA [3d1355] | 0.216
10 | TATCACTTTCGTAAGACACTTTATGGGTTGA [3d1568] | 0.0429
11 | TATCCTTGTCGAAGACACTTTGGAGGGTTGA [3d1038] | 0.016
12 | TATACTTGTCGAAGACACTTTGGATGGGTTG [3d869] | 0.61
13 | TATCCTTGTCGAAGACACTTTGGTGGGTTGA [3d1037] | 0.181
14 | TTCACTGTCGTAAGACACTTTGGATGGTTGA [3d352] | 0.498
15 | TATCCTTGTCTAAGACACTTTGGATGGGTTG [3d1028] | 0.773
16 | TTCCTTGTCGTAAGACACTTTGGTGGGTTGA [3d312] | 0.204
17 | TATCACTTGTCGTAAGCACTTTGTGGGTTGA [3d2136] | 0.0369
18 | TATCACTTGGTAAGACACTTTGGATGGGTTGA [2d163] | 0.813
19 | ATCACTTGCGTAAGACACTTTGGATGGGTTA [3d154] | 0.567
20 | TATCACTTGTCGAAGACACTTGGTGGGTTGA [3d1959] | 0.119
21 | ATCACTTGTCGAAGACACTTTGGAGGGTTGA [3d194] | 0.128
22 | TATACTTGTCGTAAGACACTTTGGTGGGTTG [3d941] | 0.0139

Row | Sequence | fraction ligated
23 | TATCCTTGTCGTAAGACACTTTGGATGGGTT [3d1119] | 0.0366
24 | ATCCTTGTCGTAAGACACTTTGGATGGGTTA [3d84] | 0.218
25 | TAACTTGTCGTAAGACACTTTGGATGGGTTG [3d527] | 0.153
26 | TATCACTGTCTAAGCACTTTGGATGGGTTGA [3d1361] | 0.771
27 | TATCACTTTCGTAGACACTTTGGATGGGTTA [3d1517] | 0.631
28 | TACACTTGTCGTAAGAACTTTGGAGGGTTGA [3d696] | 0.0171
29 | ATCACTTGTCGTAAGACACTTGGAGGGTTGA [3d256] | 0.0205
30 | TATCATTGTCGTAAGACACTTTGATGGGTTA [3d1280] | 0.158
31 | TTCACTTGTCGTAGACACTTTGGATGGGTTA [3d440] | 0.341
32 | TATCACTTTCGTAAGACACTTGGATGGGTTA [3d1566] | 0.477
33 | TATCCTTGTCGTAAACCTTTGGATGGGTTGA [3d1056] | 0.766
34 | ATCACTTGTCGTAGACACTTTGGATGGGTTG [3d210] | 0.782
35 | ATCCTTGTCGTAAGACACTTGGATGGGTTGA [3d79] | 0.733
36 | ATCACTTGTCGTAGACACTTTGGATGGTTGA [3d208] | 0.766
37 | TATCACTTGTCGTAAGACATTTGGTGGGTTGA [2d271] | 0.0311
38 | TATCACTTGTCGTAAGACATTTGGTGGGTTG [3d2223] | 0.0154
39 | TATCCTTGTCGTAAGACACTTGGATGGGTTA [3d1102] | 0.402
40 | TATCACTTTGTAAGACACTTGGATGGGTTGA [3d1472] | 0.802
41 | TATCACTGTGTAAGACACTTGGATGGGTTGA [3d1351] | 0.821
42 | TATCACTTTCGTAAGACACTTTGGTGGGTTA [3d1576] | 0.0309
43 | TACACTTGTCGTAAGCACTTTGGATGGGTTA [3d690] | 0.0198
44 | TATCACTTGTGTAAACACTTTGGTGGGTTGA [3d1749] | 0.0929

Row | Sequence | fraction ligated
45 | TATCACTTTCGTAGACACTTTGATGGGTTGA [3d1513] | 0.783
46 | TATACTTGTCGTAAGACATTTGGTGGGTTGA [3d920] | 0.0527
47 | TATCACTTGTGTAGACACTTTGGATGGTTGA [3d1741] | 0.252
48 | TATCACTGTCGAAGACACTTTGGATGGGTTA [3d1383] | 0.75
49 | TATCCTTGTCGTAAGACACTTGGATGGGTTG [3d1103] | 0.742
50 | TATACTTGTCGTAAGACCTTTGATGGGTTGA [3d912] | 0.706
51 | TTCACTTGTCGTAAGACACTTTGGTGGTTGA [3d498] | 0.014
52 | TATCACTGCGTAAGACACTTTGGATGGGTTA [3d1341] | 0.803
53 | ATCACTTGTCTAAGACCTTTGGATGGGTTGA [3d176] | 0.717
54 | TATCACTTGTGTAGACACTTTGGTGGGTTGA [3d1739] | 0.105
55 | ATCACTTGTCGTAAGACACTGGATGGGTTGA [3d253] | 0.701
56 | TACACTTTCGTAAGACACTTTGATGGGTTGA [3d595] | 0.0271
57 | TATCACTTTCGTAAGACATTTGGATGGTTGA [3d1558] | 0.286
58 | TACACTGTCGTAAGACACTTTGGATGGGTTGA [2d50] | 0.432
59 | TATACTGTCGTAAGACCTTTGGATGGGTTGA [3d787] | 0.765
60 | GGTATCACTTGTCGTAAGACACTTTGGATGTTGA [s36] | 0.000954
61 | TATCATTGCGTAGACACTTTGGATGGGTTGA [3d1159] | 0.823
62 | TCACTTGTCGTAAGACACTTTGATGGGTTGA [3d18] | 0.183
63 | TATCACTTTCGTAAGACCTTTGGTGGGTTGA [3d1549] | 0.104
64 | TTCACTTGTCGTAAGACACTTTGGATGGGTTG [2d46] | 0.792
65 | TATCCTTGTCGTAAGACCTTTGGATGGGTTG [3d1089] | 0.762
66 | ATCACTTGTCGTAGAACTTTGGATGGGTTGA [3d201] | 0.867

Row | Sequence | fraction ligated
67 | TATCACTTGTGAAGACACTTTGGAGGGTTGA [3d1727] | 0.0789
68 | TATCACTTGTCGTAAGAACTTTGGATGGTTGA [2d259] | 0.139
69 | TATCATTGTCTAAGACACTTTGGATGGGTTG [3d1200] | 0.769
70 | TATCATGTCGTAAGACACTTTGGATGGTTGA [3d1137] | 0.268
71 | TACACTTGTCTAAGACACTTTGGTGGGTTGA [3d641] | 0.124
72 | TCCTTGTCGTAAGACACTTTGGATGGGTTGA [3d3] | 0.687
73 | TATCACTTTCGTAAGAACTTTGGTGGGTTGA [3d1542] | 0.342
74 | TTCACTTGTCGTAAGACCTTTGGATGGGTTA [3d475] | 0.347
75 | ATCCTTGTCGTAAGCACTTTGGATGGGTTGA [3d75] | 0.715
76 | TATCACTTGTCGAAGACATTTGGTGGGTTGA [3d1952] | 0.05
77 | TTACTTGTCGTAAGACACTTTGATGGGTTGA [3d292] | 0.0869
78 | TATCCTTTCGTAAGACACTTTGGATGGGTTGA [2d91] | 0.786
79 | TATCATTGTCGAGACACTTTGGATGGGTTGA [3d1201] | 0.783
80 | TTCACTGTGTAAGACACTTTGGATGGGTTGA [3d339] | 0.766
81 | TATCACTTGTCGTAAGACACTTTGATGGTTA [3d2267] | 0.00859
82 | TATCACTTGCGTAAGAACTTTGGATGGGTTG [3d1666] | 0.833
83 | TATACTTGTCGTAAGAACTTTGATGGGTTGA [3d905] | 0.794
84 | TTCACTTGTCGAAGACACTTTGGATGGGTTGA [2d33] | 0.775
85 | TTCACTTGTCGTAAACACTTTGGAGGGTTGA [3d448] | 0.0223
86 | TATACTTGTCGTAAGACCTTTGGTGGGTTGA [3d913] | 0.0382
87 | TATCACTTGTGTAAGACTTTGGATGGGTTGA [3d1754] | 0.868
88 | TATCACTTGTCGTAAGAATTTGGATGGTTGA [3d2156] | 0.208

Row | Sequence | fraction ligated
89 | TATCACTGTCGTAGACATTTGGATGGGTTGA [3d1390] | 0.864
90 | TATCACTGCGTAAGACACTTTGGATGGGTTGA [2d130] | 0.851
91 | TATCACTGTCGTAGACACTTTGGTGGGTTGA [3d1393] | 0.499
92 | TATCACTGTCGTAAGACACTTGATGGGTTGA [3d1441] | 0.77
93 | ACACTTGTCGAAGACACTTTGGATGGGTTGA [3d32] | 0.475
94 | TTCATTGTCGTAAGACACTTGGATGGGTTGA [3d329] | 0.453
95 | TATCCTTTCGTAAGCACTTTGGATGGGTTGA [3d973] | 0.77
96 | TACACTTGTCGTAAGACACTTTGGGGGTTGA [3d727] | 0.0616
97 | TCACTTGCGTAAGACACTTTGGATGGGTTGA [3d7] | 0.493
98 | TATCACTTGTCGTAGACACTTGGAGGGTTGA [3d2038] | 0.0635
99 | TATCACTTGTCGTAAACACTTGGAGGGTTGA [3d2084] | 0.0636
100 | TATCACTTGTTAAGCACTTTGGATGGGTTGA [3d1707] | 0.797
101 | ATCACTTGTCGTAAGAACTTTGGAGGGTTGA [3d235] | 0.0738
102 | TATCACTTGGTAAGACATTTGGATGGGTTGA [3d1591] | 0.832
103 | TACACTGTCGTAAGACATTTGGATGGGTTGA [3d577] | 0.617
104 | TATCACTTGTCGTAAGACCTGGATGGGTTGA [3d2183] | 0.757
105 | TATCACTTGTCTAAGACACTTTGATGGGTTA [3d1889] | 0.162
106 | TATCACTTTGTAAACACTTTGGATGGGTTGA [3d1467] | 0.823
107 | TACACTTGTCGTAGACACTTTGGATGGTTGA [3d669] | 0.524
108 | TATCACTTGTGTAAGCACTTTGGAGGGTTGA [3d1760] | 0.121
